From patent US20250019450A1 (DIAGONAL THERAPEUTICS, published 2025)

How the values were obtained:
[1] = molecular target: T1, cyno IL-12RB1 overexpressed on 293T cells (Example 2) (cyno, UniProt A0A2K5VWV1 24-662); experiment: FACS, hybridoma supernatant, 293T
T1 construct: whole, on cells

[2] = molecular target: T2, human IL-12RB1 overexpressed on 293T cells (Example 2) (human, UniProt P42701 24-662); experiment: FACS, hybridoma supernatant, 293T
T2 construct: whole, on cells

[3] = molecular target: human IL-12Rβ1, Acro (BLI analyte) (human, UniProt P42701 24-545); experiment: BLI (Octet), antibody on AHC tip
[4] = molecular target: human IL-12 receptor (IL-12Rβ1 and IL-12Rβ2) on HEK-Blue IL-12 cells (human, UniProt P42701 24-662; Q99665 24-862); experiment: cell-based or functional assay
[5] = molecular target: T3, cyno IL-12RB2 with C-terminal HA tag, transiently expressed on HEK-293T cells (cyno, UniProt A0A2K5VNI7 24-860); experiment: FACS, periplasmic extract, HEK-293T
T3 construct: whole, on cells; also called cyno IL-12Rβ2
T3 sequence: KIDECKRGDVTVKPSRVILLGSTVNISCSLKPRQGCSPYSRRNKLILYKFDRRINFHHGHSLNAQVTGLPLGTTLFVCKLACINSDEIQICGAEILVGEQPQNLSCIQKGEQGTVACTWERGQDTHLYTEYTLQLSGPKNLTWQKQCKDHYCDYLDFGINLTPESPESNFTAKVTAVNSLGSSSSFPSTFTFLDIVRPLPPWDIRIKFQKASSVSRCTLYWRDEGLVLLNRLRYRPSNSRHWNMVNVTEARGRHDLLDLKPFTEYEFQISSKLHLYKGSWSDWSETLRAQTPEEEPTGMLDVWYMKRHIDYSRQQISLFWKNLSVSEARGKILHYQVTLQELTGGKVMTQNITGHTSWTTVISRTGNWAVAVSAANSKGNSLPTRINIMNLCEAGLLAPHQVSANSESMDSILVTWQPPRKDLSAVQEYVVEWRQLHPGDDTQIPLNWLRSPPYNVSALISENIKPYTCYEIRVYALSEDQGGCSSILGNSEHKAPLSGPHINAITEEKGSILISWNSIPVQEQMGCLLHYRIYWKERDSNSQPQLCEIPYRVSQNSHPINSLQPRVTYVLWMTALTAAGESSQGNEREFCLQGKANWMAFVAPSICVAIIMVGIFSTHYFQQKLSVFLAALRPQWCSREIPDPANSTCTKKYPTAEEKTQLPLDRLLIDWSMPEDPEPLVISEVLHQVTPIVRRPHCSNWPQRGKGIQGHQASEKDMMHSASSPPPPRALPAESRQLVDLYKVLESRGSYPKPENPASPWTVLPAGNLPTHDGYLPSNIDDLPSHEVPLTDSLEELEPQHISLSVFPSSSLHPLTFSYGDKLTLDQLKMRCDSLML

[6] = molecular target: T4, human IL-12RB2 with C-terminal HA tag, transiently expressed on HEK-293T cells (human, UniProt Q99665 24-862); experiment: FACS, periplasmic extract, HEK-293T
T4 construct: whole, on cells; also called human IL-12Rβ2
T4 sequence (looked up): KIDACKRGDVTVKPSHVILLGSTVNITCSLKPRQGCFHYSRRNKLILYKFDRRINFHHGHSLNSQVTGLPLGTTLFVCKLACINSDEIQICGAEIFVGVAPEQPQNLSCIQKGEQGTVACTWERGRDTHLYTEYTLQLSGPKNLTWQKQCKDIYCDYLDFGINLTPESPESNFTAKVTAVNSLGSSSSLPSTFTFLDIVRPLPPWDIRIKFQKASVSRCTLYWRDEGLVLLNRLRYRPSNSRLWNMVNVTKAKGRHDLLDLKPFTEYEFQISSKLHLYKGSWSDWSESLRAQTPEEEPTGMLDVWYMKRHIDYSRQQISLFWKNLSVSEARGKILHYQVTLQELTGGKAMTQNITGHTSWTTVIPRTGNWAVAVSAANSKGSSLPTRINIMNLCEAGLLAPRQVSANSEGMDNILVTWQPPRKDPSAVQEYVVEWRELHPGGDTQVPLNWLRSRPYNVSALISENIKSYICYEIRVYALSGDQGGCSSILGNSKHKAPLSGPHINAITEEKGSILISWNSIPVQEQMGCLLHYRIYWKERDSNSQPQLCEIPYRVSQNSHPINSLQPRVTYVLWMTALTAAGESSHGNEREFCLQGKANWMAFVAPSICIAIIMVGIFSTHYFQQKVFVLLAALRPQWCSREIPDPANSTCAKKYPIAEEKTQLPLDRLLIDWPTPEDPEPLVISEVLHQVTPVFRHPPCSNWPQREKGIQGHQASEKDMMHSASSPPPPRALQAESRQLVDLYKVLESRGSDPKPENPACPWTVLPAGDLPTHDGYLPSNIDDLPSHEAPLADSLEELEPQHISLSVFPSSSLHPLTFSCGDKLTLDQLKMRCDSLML

B1: 85801_10K15 (antibody, V domains shown)
VH: QITLKESGPTLVKPTQTLTLTCTFFGFSLNTGGVGVGWIRQPPGKALEWLTLIYWNDDKRYSPSLKSRLTITKDTSKNQVVLTMTNMDPVDTATYYCAHTLRWYHGFDIWGQGTMVTVSS
VL: QTVVTQEPSFSVSPGGTVTLTCGLTSGSVSTSYYPSWYQQTPGQAPRTLIYSTYTRSSGVPDRFSGSILGNKAALTITGAQADDESDYYCVLYMGSGIWVFGGGTKLTVL
notes: also called 85801_10K15A
Question: B1 was tested. Which “Fold over parental 293T” value [1] did it give?
Answer: The value was 21 fold.

Question: What about the “Fold over parental 293T” value [2] of the same binder?
Answer: The value was 57 fold.

B2: DGL421 (bispecific antibody, human IgG1, lambda)
heavy 1: not shown
heavy 2: QVQLQESGPGLVKPSQTLSLTCTVSGGSITTNYYYWSWIRQPPGKGLEWMGAIAYSGSTYYSPSLKSRTSISRDTSKNQFTLQLSSVTPEDTAVYYCASGINFYSNYPTLNEYDYWGQGTQVTVEPKSSDKTHTCPPCPAPEAAGAPSVFLFPPKPKDTLMISRTPEVTCVVVDVSHEDPEVKFNWYVDGVEVHNAKTKPREEQYNSTYRVVSVLTVLHQDWLNGKEYKCKVSNKALPAPIEKTISKAKGQPREPQVCTLPPSRDELTKNQVSLSCAVKGFYPSDIAVEWESNGQPENNYKTTPPVLDSDGSFFLVSKLTVDKSRWQQGNVFSCSVMHEALHNRFTQKSLSLSPG
light: QTVVTQEPSFSVSPGGTVTLTCGLTSGSVSTSYYPSWYQQTPGQAPRTLIYSTYTRSSGVPDRFSGSILGNKAALTITGAQADDESDYYCVLYMGSGIWVFGGGTKLTVLGQPKAAPSVTLFPPSSEELQANKATLVCLISDFYPGAVTVAWKADSSPVKAGVETTTPSKQSNNKYAASSYLSLTPEQWKSHRSYSCQVTHEGSTVEKTVAPTECS
notes: 85801_10K15A x 190B2
Question: What does the source list for B2?
Answer: Kd [3]: 6.06 nM; EC50 [4]: 1.1e-09 M (implied); Max Absorbance [4]: 0.9

B3: VHH216B2 (VHH)
VHH: QVQLVESGGGLVQPGGSLRLSCATSEHTFGTYRMGWFRQAPGKEREFVAGISWTGQTTYYAASVKGRFAISKDNAKNTVYLQMNTLKSDDTAVYYCAVETNNLGRWDRPSEYDYWGQGTQVTVSS
Question: Which FOB [5] does the source give for B3 here?
Answer: The FOB was 0.98 fold.

B4: VHH229B2 (VHH)
VHH: QVQLVESGGGLVQAGGSLRLSCAASGRTFSSYAMGWFRQAPGKEREFVSAISWNGGSRYYVESVEGRFTISRDNAKNTVYLQMNSLKPEDTAVYYCAASRIYTNYVARSYEYDDWGQGTQVTVSS
Question: With B4 as the binder, how does the FOB [5] read?
Answer: Its FOB is 1 fold.

Question: And the FOB [6]?
Answer: Its FOB is 1.42 fold.

B5: 85801_04G19 (antibody, V domains shown)
VH: QVQLQESGPGLVKPSETLSLTCTVSGGSISSYYWSWIRQSAGKELEWIGRIYTSGSTIYNPSLKSRVTMSVDPSKNQFSLKLSSVTAADTAVYYCANSRSYPHDAFDIWGQGTMVTVSS
VL: DIQLTQSPSFLSASVGYRVTITCRASQGISSYLAWYQQKPGKAPQLLIYAASTLQSGVPSRFSGRGSGTEFTLTISSLQPEDFATYYCQQLNGYPFTFGPGTKVNIK
notes: also called 85801_04G19A
Question: Which results are given for B5?
Answer: Fold over parental 293T [1]: 116 fold; Fold over parental 293T [2]: 262 fold

B6: VHH211B2 (VHH)
VHH: QVQLVESGGGLVQAGNSLRLSCAASGRTFSSYVVGWFRQAPGKEREFVGRISWSGARTYYADSVKGRFTISRDNAKNTVYLQMNSLKPEDTAVYYCAADLKWEVLLSEHFEYWGQGTQVTVSS
Question: What does the source list for B6?
Answer: FOB [5]: 0.99 fold; FOB [6]: 1.64 fold

B7: VHH241B2 (VHH)
VHH: QVQLVESGGGLVQLGDSLRLSCAASGRGFSSWTMAWFRQALGKRREFVAAITATGARTCSAESEGRFTISRDNAKNMVFLQMNSLKAEDTAVYYCAATGIASWDPGMADKYTYWGQGTQVTVSS
Question: Which FOB [5] does the source give for B7 here?
Answer: Its FOB is 2.37 fold.

B8: VHH277B2 (VHH)
VHH: QVQLVESGGGLVQLGDSLRLSCAASGRGFSSWTMAWFRQALGKRREFVAAITATGARTCSAESEGRFTISRDNAKNMVFLQMNSLKAEDTAVYYCAATEIAGWDPGMGDKYPYWGQGTQVTVSS
Question: With B8 as the binder, how does the FOB [5] read?
Answer: The FOB was 1.55 fold.

Question: And the FOB [6]?
Answer: The FOB was 1.21 fold.
